# Data reported in PMC3063768.
# Assays:
# [1] = target: HIV-1 CA P207C/T216C, tubular assemblies, non-oxidized (HIV-1); experiment: cross-linking; preassembled double-cysteine mutant CA tubes oxidized with CuSO4/1,10-phenanthroline for 5 seconds, quenched with iodoacetamide and neocuproine; non-reducing SDS-PAGE, Coomassie Blue; with or without prior TRIM5α CC-SPRY (18 µM)
# [2] = target: HIV-1 capsid-nucleocapsid (CA-NC), preassembled tubular assemblies (HIV-1); experiment: co-sedimentation; preassembled CA-NC tubes (2 mg/ml or 10 µM, with TG50 oligonucleotide) incubated with TRIM5α CC-SPRY (0-20 µM) 1 hr at room temperature; pelleted at 20,000 g 15 min; SDS-PAGE, Coomassie Blue, gel densitometry of pellet
# [3] = target: HIV-1 capsid protein (CA), wild type, preassembled tubular assemblies (HIV-1); experiment: co-sedimentation; preassembled wild-type CA tubes (64 µM) incubated with TRIM5α CC-SPRY (0-20 µM) 1 hr at room temperature in 10 mM Tris pH 7.5, 330 mM NaCl, 1 mM TCEP, 5% glycerol; pelleted at 20,000 g 15 min; SDS-PAGE, Coomassie Blue, gel densitometry of pellet
# [4] = target: HIV-1 CA A14C/E45C, tubular assemblies (HIV-1); experiment: cross-linking; preassembled double-cysteine mutant CA tubes oxidized with CuSO4/1,10-phenanthroline for 5 seconds, quenched with iodoacetamide and neocuproine; non-reducing SDS-PAGE, Coomassie Blue; with or without prior TRIM5α CC-SPRY (18 µM)
# [5] = target: CA of isolated HIV-1 A14C/E45C cores (HIV-1); experiment: cross-linking; isolated HIV-1 cores with double-cysteine mutant CA, with or without oxidizer; non-reducing SDS-PAGE, immunoblotting with rabbit anti-CA serum
# [6] = target: CA of isolated HIV-1 P207C/T216C cores, without oxidizer (HIV-1); experiment: as above
substance,measurement,setting,value
"HIV-1 CA P207C/T216C, tubular assemblies, non-oxidized (natural protein)",stoichiometry N,[1],3
"Rhesus macaque TRIM5α coiled-coil and SPRY domains (TRIM5αrh CC-SPRY, residues 134–497) (from UniProt Q0PF16 134-497) (domain or fragment)",binding ratio (molar ratio of bound TRIM5αrh CC-SPRY to CA-NC in the pellet) at 1 µM TRIM5αrh CC-SPRY and 10 µM CA-NC,[2],0.034 molar ratio
same,binding ratio (molar ratio of bound TRIM5αrh CC-SPRY to CA-NC in the pellet) at 18 µM TRIM5αrh CC-SPRY,[2],0.21 molar ratio
same,binding ratio (molar ratio of bound TRIM5αrh CC-SPRY to CA in the pellet) at 18 µM TRIM5αrh CC-SPRY,[3],0.41 molar ratio
"HIV-1 CA A14C/E45C, tubular assemblies (natural protein)",stoichiometry N,[4],6
CA of isolated HIV-1 A14C/E45C cores (natural protein),stoichiometry N,[5],6
"CA of isolated HIV-1 P207C/T216C cores, without oxidizer (natural protein)",stoichiometry N,[6],3
